# Read-outs that look alike come from different tables or passages of the source.
# Tests used:
# [1] = biological target: T1, 6xHis-HNRNPK (mouse, UniProt P61979 1-463); experiment: EMSA
# [2] = biological target: T1, 6xHis-HNRNPK; experiment: EMSA; remark: listed apart in the source
Binder,binding result [1],binding result [2]
mutant Repeat B RNA (ssRNA) RNA: GCAACAGCAACUGCAACAGCAACAGCAACUGCAACUGCAACAGCAACUGCAACA,no binding,–
WT Repeat B RNA (ssRNA) RNA: GCCCCAGCCCCUGCCCCAGCCCCAGCCCCUGCCCCUGCCCCAGCCCCUGCCCCA,–,binds

# Source: PMC6469964
